# Measurements: publication PMC9482650, “Quantitative fragmentomics allow affinity mapping of interactomes” (Nature Communications, 2022)
# T1: SNTG1, Q9NSN8
# T1 sequence (Q9NSN8 52-150, limits assumed, looked up): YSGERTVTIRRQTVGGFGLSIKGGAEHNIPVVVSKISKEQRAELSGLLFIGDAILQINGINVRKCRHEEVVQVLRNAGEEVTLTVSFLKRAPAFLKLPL
# T2: NHERF3_1, Q5T2W1
# T2 sequence (Q5T2W1 4-100, limits assumed, looked up): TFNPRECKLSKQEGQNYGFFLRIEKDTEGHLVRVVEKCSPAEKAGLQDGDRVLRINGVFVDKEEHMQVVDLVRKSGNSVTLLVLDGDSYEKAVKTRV
# T3: LNX2_2, Q8N448
# T3 sequence (Q8N448 334-432, limits assumed, looked up): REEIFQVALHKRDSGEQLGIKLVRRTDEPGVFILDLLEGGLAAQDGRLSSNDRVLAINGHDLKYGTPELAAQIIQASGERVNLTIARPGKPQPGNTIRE
# T4: NHERF3_4, Q5T2W1
# T4 sequence (Q5T2W1 373-468, limits assumed, looked up): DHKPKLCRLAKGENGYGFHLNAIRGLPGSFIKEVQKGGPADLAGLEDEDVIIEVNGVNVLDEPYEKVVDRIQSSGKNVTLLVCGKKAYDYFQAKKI
# T5: LIN7C, Q9NUP9
# T5 sequence (Q9NUP9 88-185, limits assumed, looked up): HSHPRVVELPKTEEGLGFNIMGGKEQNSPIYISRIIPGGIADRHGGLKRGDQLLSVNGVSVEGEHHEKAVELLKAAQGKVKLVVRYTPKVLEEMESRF
# T6: RHPN1, Q8TCX5
# T6 sequence (Q8TCX5 508-602, limits assumed, looked up): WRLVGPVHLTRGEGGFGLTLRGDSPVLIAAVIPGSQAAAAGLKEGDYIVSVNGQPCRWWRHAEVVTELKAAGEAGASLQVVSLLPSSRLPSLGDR
# T7: MPP2, Q14168
# T7 sequence (Q14168 180-250, limits assumed, looked up): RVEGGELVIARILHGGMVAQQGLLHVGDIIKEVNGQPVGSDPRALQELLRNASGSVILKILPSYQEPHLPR
# T8: SHANK1, Q9Y566
# T8 sequence (Q9Y566 658-767, limits assumed, looked up): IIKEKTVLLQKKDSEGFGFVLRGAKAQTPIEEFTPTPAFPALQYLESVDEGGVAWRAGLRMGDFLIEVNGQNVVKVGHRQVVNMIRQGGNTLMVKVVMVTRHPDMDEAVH
# T9: DLG3_2, Q92796
# T9 sequence (Q92796 221-321, limits assumed, looked up): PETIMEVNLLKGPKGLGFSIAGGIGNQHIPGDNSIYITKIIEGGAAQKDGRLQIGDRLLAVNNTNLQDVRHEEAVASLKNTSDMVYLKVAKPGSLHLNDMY
# T10: DFNB31_3, Q9P202
# T10 sequence (Q9P202 811-907, limits assumed, looked up): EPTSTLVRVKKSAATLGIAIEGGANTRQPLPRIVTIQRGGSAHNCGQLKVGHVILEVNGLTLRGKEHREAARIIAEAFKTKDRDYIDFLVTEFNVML
# T11: SYNJ2BP, P57105
# T11 sequence (P57105 8-110, limits assumed, looked up): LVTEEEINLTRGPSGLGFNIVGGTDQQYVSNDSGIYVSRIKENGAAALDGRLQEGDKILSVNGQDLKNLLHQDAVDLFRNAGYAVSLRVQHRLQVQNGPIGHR
# Target: T1, SNTG1, Q9NSN8
# Assay: holdup assay
# Design: key: below the threshold = too weak to quantify, mostly under pKd 3.1 to 4
# Details: plain residues with an end cap or a label only (N-terminal biotin on a linker: ttds)
row,Binder,pKd
1,"NDPAWDETNL [ARHGEF7, Q14155;Q14155-1]",4.26
2,"SKPTRRETEV [HPV35-E6, P27228]",4.31

# Target: T2, NHERF3_1, Q5T2W1
# Assay: holdup assay
# Design: key: below the threshold = too weak to quantify, mostly under pKd 3.1 to 4
# Details: plain residues with an end cap or a label only (N-terminal biotin on a linker: ttds)
row,Binder,pKd
1,"NDPAWDETNL [ARHGEF7, Q14155;Q14155-1]",4.26
2,"SKPTRRETEV [HPV35-E6, P27228]",4.04

# Target: LNX1_1, Q8TBB1
# Assay: holdup assay
# Design: key: below the threshold = too weak to quantify, mostly under pKd 3.1 to 4
# Details: plain residues with an end cap or a label only (N-terminal biotin on a linker: ttds)
# Chain of LNX1_1, Q8TBB1 (Q8TBB1 261-371): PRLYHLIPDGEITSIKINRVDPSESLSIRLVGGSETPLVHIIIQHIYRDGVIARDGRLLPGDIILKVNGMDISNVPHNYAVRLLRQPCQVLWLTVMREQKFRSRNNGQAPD
row,Binder,pKd
1,"NDPAWDETNL [ARHGEF7, Q14155;Q14155-1]",below the threshold
2,"SKPTRRETEV [HPV35-E6, P27228]",below the threshold

# Target: NHERF2_2, Q15599
# Assay: holdup assay
# Design: key: below the threshold = too weak to quantify, mostly under pKd 3.1 to 4
# Details: plain residues with an end cap or a label only (N-terminal biotin on a linker: ttds)
# Chain of NHERF2_2, Q15599 (Q15599 142-238): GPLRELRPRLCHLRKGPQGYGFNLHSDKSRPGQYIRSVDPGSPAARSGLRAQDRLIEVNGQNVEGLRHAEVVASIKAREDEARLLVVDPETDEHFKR
row,Binder,pKd
1,"NDPAWDETNL [ARHGEF7, Q14155;Q14155-1]",4.81
2,"SKPTRRETEV [HPV35-E6, P27228]",below the threshold

# Target: PDZRN4_1, Q6ZMN7
# Assay: holdup assay
# Design: key: below the threshold = too weak to quantify, mostly under pKd 3.1 to 4
# Details: plain residues with an end cap or a label only (N-terminal biotin on a linker: ttds)
# Chain of PDZRN4_1, Q6ZMN7 (Q6ZMN7 213-318): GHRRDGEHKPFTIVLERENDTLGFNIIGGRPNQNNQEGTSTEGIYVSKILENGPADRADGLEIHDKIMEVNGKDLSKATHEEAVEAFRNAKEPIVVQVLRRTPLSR
row,Binder,pKd
1,"NDPAWDETNL [ARHGEF7, Q14155;Q14155-1]",3.98
2,"SKPTRRETEV [HPV35-E6, P27228]",4.38

# Target: DLG4_2, P78352
# Assay: holdup assay
# Design: key: below the threshold = too weak to quantify, mostly under pKd 3.1 to 4
# Details: plain residues with an end cap or a label only (N-terminal biotin on a linker: ttds)
# Chain of DLG4_2, P78352 (P78352 155-259): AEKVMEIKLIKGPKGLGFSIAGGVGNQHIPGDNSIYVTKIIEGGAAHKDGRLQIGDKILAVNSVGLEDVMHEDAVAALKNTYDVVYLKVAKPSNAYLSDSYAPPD
row,Binder,pKd
1,"NDPAWDETNL [ARHGEF7, Q14155;Q14155-1]",below the threshold
2,"SKPTRRETEV [HPV35-E6, P27228]",5.51

# Target: T3, LNX2_2, Q8N448
# Assay: holdup assay
# Design: key: below the threshold = too weak to quantify, mostly under pKd 3.1 to 4
# Details: plain residues with an end cap or a label only (N-terminal biotin on a linker: ttds)
row,Binder,pKd
1,"NDPAWDETNL [ARHGEF7, Q14155;Q14155-1]",below the threshold
2,"SKPTRRETEV [HPV35-E6, P27228]",below the threshold

# Target: T4, NHERF3_4, Q5T2W1
# Assay: holdup assay
# Design: key: below the threshold = too weak to quantify, mostly under pKd 3.1 to 4
# Details: plain residues with an end cap or a label only (N-terminal biotin on a linker: ttds)
row,Binder,pKd
1,"NDPAWDETNL [ARHGEF7, Q14155;Q14155-1]",below the threshold
2,"SKPTRRETEV [HPV35-E6, P27228]",below the threshold

# Target: T5, LIN7C, Q9NUP9
# Assay: holdup assay
# Design: key: below the threshold = too weak to quantify, mostly under pKd 3.1 to 4
# Details: plain residues with an end cap or a label only (N-terminal biotin on a linker: ttds)
row,Binder,pKd
1,"NDPAWDETNL [ARHGEF7, Q14155;Q14155-1]",below the threshold
2,"SKPTRRETEV [HPV35-E6, P27228]",3.76

# Target: NHERF4_2, Q86UT5
# Assay: holdup assay
# Design: key: below the threshold = too weak to quantify, mostly under pKd 3.1 to 4
# Details: plain residues with an end cap or a label only (N-terminal biotin on a linker: ttds)
# Chain of NHERF4_2, Q86UT5 (Q86UT5 220-308): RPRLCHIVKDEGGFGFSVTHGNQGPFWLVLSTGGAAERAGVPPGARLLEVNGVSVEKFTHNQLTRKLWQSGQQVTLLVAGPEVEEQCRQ
row,Binder,pKd
1,"NDPAWDETNL [ARHGEF7, Q14155;Q14155-1]",below the threshold
2,"SKPTRRETEV [HPV35-E6, P27228]",below the threshold

# Target: T6, RHPN1, Q8TCX5
# Assay: holdup assay
# Design: key: below the threshold = too weak to quantify, mostly under pKd 3.1 to 4
# Details: plain residues with an end cap or a label only (N-terminal biotin on a linker: ttds)
row,Binder,pKd
1,"NDPAWDETNL [ARHGEF7, Q14155;Q14155-1]",4.6
2,"SKPTRRETEV [HPV35-E6, P27228]",below the threshold

# Target: T7, MPP2, Q14168
# Assay: holdup assay
# Design: key: below the threshold = too weak to quantify, mostly under pKd 3.1 to 4
# Details: plain residues with an end cap or a label only (N-terminal biotin on a linker: ttds)
row,Binder,pKd
1,"NDPAWDETNL [ARHGEF7, Q14155;Q14155-1]",below the threshold
2,"SKPTRRETEV [HPV35-E6, P27228]",below the threshold

# Target: FRMPD3, Q5JV73
# Assay: holdup assay
# Design: key: below the threshold = too weak to quantify, mostly under pKd 3.1 to 4
# Details: plain residues with an end cap or a label only (N-terminal biotin on a linker: ttds)
# Chain of FRMPD3, Q5JV73 (Q5JV73 12-100): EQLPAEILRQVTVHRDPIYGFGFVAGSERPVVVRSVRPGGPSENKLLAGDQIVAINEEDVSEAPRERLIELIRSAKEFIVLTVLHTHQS
row,Binder,pKd
1,"SKPTRRETEV [HPV35-E6, P27228]",below the threshold

# Target: PTPN3, P26045
# Assay: holdup assay
# Design: key: below the threshold = too weak to quantify, mostly under pKd 3.1 to 4
# Details: plain residues with an end cap or a label only (N-terminal biotin on a linker: ttds)
# Chain of PTPN3, P26045 (P26045 505-587): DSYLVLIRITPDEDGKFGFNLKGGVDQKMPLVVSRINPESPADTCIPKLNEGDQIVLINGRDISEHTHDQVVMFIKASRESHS
row,Binder,pKd
1,"NDPAWDETNL [ARHGEF7, Q14155;Q14155-1]",4.44
2,"SKPTRRETEV [HPV35-E6, P27228]",4.93

# Target: MAGI1_2, Q96QZ7
# Assay: holdup assay
# Design: key: below the threshold = too weak to quantify, mostly under pKd 3.1 to 4
# Details: plain residues with an end cap or a label only (N-terminal biotin on a linker: ttds)
# Chain of MAGI1_2, Q96QZ7 (Q96QZ7 456-580): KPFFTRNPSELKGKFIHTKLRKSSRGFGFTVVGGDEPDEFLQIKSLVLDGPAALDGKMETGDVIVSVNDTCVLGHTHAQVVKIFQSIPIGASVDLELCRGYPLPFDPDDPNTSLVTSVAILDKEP
row,Binder,pKd
1,"NDPAWDETNL [ARHGEF7, Q14155;Q14155-1]",below the threshold
2,"SKPTRRETEV [HPV35-E6, P27228]",5.13

# Target: MAST1, Q9Y2H9
# Assay: holdup assay
# Design: key: below the threshold = too weak to quantify, mostly under pKd 3.1 to 4
# Details: plain residues with an end cap or a label only (N-terminal biotin on a linker: ttds)
# Chain of MAST1, Q9Y2H9 (Q9Y2H9 962-1065): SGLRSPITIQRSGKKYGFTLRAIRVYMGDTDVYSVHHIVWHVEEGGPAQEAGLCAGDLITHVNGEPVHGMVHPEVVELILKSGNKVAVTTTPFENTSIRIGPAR
row,Binder,pKd
1,"NDPAWDETNL [ARHGEF7, Q14155;Q14155-1]",4.92
2,"SKPTRRETEV [HPV35-E6, P27228]",below the threshold

# Target: T8, SHANK1, Q9Y566
# Assay: holdup assay
# Design: key: below the threshold = too weak to quantify, mostly under pKd 3.1 to 4
# Details: plain residues with an end cap or a label only (N-terminal biotin on a linker: ttds)
row,Binder,pKd
1,"NDPAWDETNL [ARHGEF7, Q14155;Q14155-1]",4.79
2,"SKPTRRETEV [HPV35-E6, P27228]",below the threshold

# Target: GORASP2, Q9H8Y8
# Assay: holdup assay
# Design: key: below the threshold = too weak to quantify, mostly under pKd 3.1 to 4
# Details: plain residues with an end cap or a label only (N-terminal biotin on a linker: ttds)
row,Binder,pKd
1,"NDPAWDETNL [ARHGEF7, Q14155;Q14155-1]",below the threshold
2,"SKPTRRETEV [HPV35-E6, P27228]",3.82

# Target: T9, DLG3_2, Q92796
# Assay: holdup assay
# Design: key: below the threshold = too weak to quantify, mostly under pKd 3.1 to 4
# Details: plain residues with an end cap or a label only (N-terminal biotin on a linker: ttds)
row,Binder,pKd
1,"NDPAWDETNL [ARHGEF7, Q14155;Q14155-1]",below the threshold
2,"SKPTRRETEV [HPV35-E6, P27228]",5.49

# Target: DLG4_1, P78352
# Assay: holdup assay
# Design: key: below the threshold = too weak to quantify, mostly under pKd 3.1 to 4
# Details: plain residues with an end cap or a label only (N-terminal biotin on a linker: ttds)
# Chain of DLG4_1, P78352 (P78352 62-152): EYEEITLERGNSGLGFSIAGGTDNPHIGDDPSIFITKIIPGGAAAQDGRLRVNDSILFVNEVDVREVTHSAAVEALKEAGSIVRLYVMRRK
row,Binder,pKd
1,"NDPAWDETNL [ARHGEF7, Q14155;Q14155-1]",below the threshold
2,"SKPTRRETEV [HPV35-E6, P27228]",5.09

# Target: T10, DFNB31_3, Q9P202
# Assay: holdup assay
# Design: key: below the threshold = too weak to quantify, mostly under pKd 3.1 to 4
# Details: plain residues with an end cap or a label only (N-terminal biotin on a linker: ttds)
row,Binder,pKd
1,"NDPAWDETNL [ARHGEF7, Q14155;Q14155-1]",below the threshold
2,"SKPTRRETEV [HPV35-E6, P27228]",below the threshold

# Target: Inadl_8, Q8NI35
# Assay: holdup assay
# Design: key: below the threshold = too weak to quantify, mostly under pKd 3.1 to 4
# Details: plain residues with an end cap or a label only (N-terminal biotin on a linker: ttds)
# Chain of Inadl_8, Q8NI35 (Q8NI35 1425-1530): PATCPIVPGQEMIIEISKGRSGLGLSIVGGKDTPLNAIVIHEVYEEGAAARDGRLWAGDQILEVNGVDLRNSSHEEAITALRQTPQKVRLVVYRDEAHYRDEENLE
row,Binder,pKd
1,"NDPAWDETNL [ARHGEF7, Q14155;Q14155-1]",below the threshold
2,"SKPTRRETEV [HPV35-E6, P27228]",below the threshold

# Target: GORASP1, Q9BQQ3
# Assay: holdup assay
# Design: key: below the threshold = too weak to quantify, mostly under pKd 3.1 to 4
# Details: plain residues with an end cap or a label only (N-terminal biotin on a linker: ttds)
# Chain of GORASP1, Q9BQQ3 (Q9BQQ3 1-208): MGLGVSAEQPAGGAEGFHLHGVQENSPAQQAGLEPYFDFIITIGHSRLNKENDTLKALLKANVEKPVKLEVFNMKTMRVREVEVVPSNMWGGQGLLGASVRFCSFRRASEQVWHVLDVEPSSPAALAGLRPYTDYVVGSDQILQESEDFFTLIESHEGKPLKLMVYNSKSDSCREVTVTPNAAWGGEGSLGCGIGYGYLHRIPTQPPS
row,Binder,pKd
1,"NDPAWDETNL [ARHGEF7, Q14155;Q14155-1]",below the threshold
2,"SKPTRRETEV [HPV35-E6, P27228]",below the threshold

# Target: T11, SYNJ2BP, P57105
# Assay: holdup assay
# Design: key: below the threshold = too weak to quantify, mostly under pKd 3.1 to 4
# Details: plain residues with an end cap or a label only (N-terminal biotin on a linker: ttds)
row,Binder,pKd
1,"SKPTRRETEV [HPV35-E6, P27228]",5.69

# Target: TJP1_2, Q07157
# Assay: holdup assay
# Design: key: below the threshold = too weak to quantify, mostly under pKd 3.1 to 4
# Details: plain residues with an end cap or a label only (N-terminal biotin on a linker: ttds)
# Chain of TJP1_2, Q07157 (Q07157 181-274): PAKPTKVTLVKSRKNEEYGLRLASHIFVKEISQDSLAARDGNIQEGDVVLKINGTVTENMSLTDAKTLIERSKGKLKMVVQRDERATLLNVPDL
row,Binder,pKd
1,"NDPAWDETNL [ARHGEF7, Q14155;Q14155-1]",below the threshold
2,"SKPTRRETEV [HPV35-E6, P27228]",below the threshold

# Target: SCRIB_1, Q14160
# Assay: holdup assay
# Design: key: below the threshold = too weak to quantify, mostly under pKd 3.1 to 4
# Details: plain residues with an end cap or a label only (N-terminal biotin on a linker: ttds)
# Chain of SCRIB_1, Q14160 (Q14160 718-814): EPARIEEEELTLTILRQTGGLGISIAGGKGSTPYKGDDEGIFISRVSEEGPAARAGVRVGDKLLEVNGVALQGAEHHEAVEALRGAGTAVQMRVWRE
row,Binder,pKd
1,"NDPAWDETNL [ARHGEF7, Q14155;Q14155-1]",5.5
2,"SKPTRRETEV [HPV35-E6, P27228]",4.56

# Target: MAGI2_3, Q86UL8
# Assay: holdup assay
# Design: key: below the threshold = too weak to quantify, mostly under pKd 3.1 to 4
# Details: plain residues with an end cap or a label only (N-terminal biotin on a linker: ttds)
# Chain of MAGI2_3, Q86UL8 (Q86UL8 600-682): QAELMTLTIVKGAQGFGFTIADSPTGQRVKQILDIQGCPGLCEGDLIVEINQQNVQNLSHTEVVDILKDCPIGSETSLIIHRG
row,Binder,pKd
1,"NDPAWDETNL [ARHGEF7, Q14155;Q14155-1]",below the threshold
2,"SKPTRRETEV [HPV35-E6, P27228]",below the threshold
